The text below walks through data of US20100015650.

The series has as its target T1, BRB1 tyrosine kinase substrate peptide.
T1 chain: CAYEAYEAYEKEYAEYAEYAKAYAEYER

B1: ITK (protein)
chain: NNFILLEEQLIKKSQQKRRTSPSNFKVRFFVLTKASLAYFEDRHGKKRTLKGSIELSRIKCVEIVKSDISIPCHYKYPFQVVHDNYLLYVFAPDRESRQRWVLALKEETRNNNSLVPKYHPNFWMDGKWRCCSQLEKLATGCAQYDPTKNASKKPLPPTPEDNRRPLWEPEETVVIALYDYQTNDPQELALRRNEEYCLLDSSEIHWWRVQDRNGHEGYVPSSYLVEKSPNNLETYEWYNKSISRDKAEKLLLDTGKEGAFMVRDSRTAGTYTVSVFTKAVVSENNPCIKHYHIKETNDNPKRYYVAEKYVFDSIPLLINYHQHNGGGLVTRLRYPVCFGRQKAPVTAGLRYGKWVIDPSELTFVQEIGSGQFGLVHLGYWLNKDKVAIKTIREGAMSEEDFIEEAEVMMKLSHPKLVQLYGVCLEQAPICLVFEFMEHGCLSDYLRTQRGLFAAETLLGMCLDVCEGMAYLEEACVIHRDLAARNCLVGENQVIKVSDFGMTRFVLDDQYTSSTGTKFPVKWASPEVFSFSRYSSKSDVWSFGVLMWEVFSEGKIPYENRSNSEVVEDISTGFRLYKPRLASTHVYQIMNHCWKERPEDRPAFSRLLRQLAEIAESGL
On to B1, for which the Signal to Noise ratio with BRB1 Peptide (TR-FRET kinase assay; kinase 0.5 nM) was 8.4.

B2: JAK3 (protein)
chain: ALAPRDGLWNGAQLYACQDPTIFEERHLKYISQLGKGNFGSVELCRYDPLGDNTGALVAVKQLQHSGPDQQRDFQREIQILKALHSDFIVKYRGVSYGPGRQSLRLVMEYLPSGCLRDFLQRHRARLDASRLLLYSSQICKGMEYLGSRRCVHRDLAARNILVESEAHVKIADFGLAKLLPLDKDYYVVREPGQSPIFWYAPESLSDNIFSRQSDVWSFGVVLYELFTYCDKSCSPSAEFLRMMGCERDVPALCRLLELLEEGQRLPAPPACPAEVHELMKLCWAPSPQDRPSFSALGPQLDMLWSGSRGCETHAFTAHPEGKHHSLSFS
As for B2, the Signal to Noise ratio with BRB1 Peptide (TR-FRET kinase assay; kinase 0.5 nM) came to 16.1.

B3: LYNb (protein)
chain: MGCIKSKGKDSLSDDGVDLKTQPVPESQLLPGQRFQTKDPEEQGDIVVALYPYDGIHPDDLSFKKGEKMKVLEEHGEWWKAKSLLTKKEGFIPSNYVAKLNTLETEEWFFKDITRKDAERQLLAPGNSAGAFLIRESETLKGSFSLSVRDFDPVHGDVIKHYKIRSLDNGGYYISPRITFPCISDMIKHYQKQADGLCRRLEKACISPKPQKPWDKDAWEIPRESIKLVKRLGAGQFGEVWMGYYNNSTKVAVKTLKPGTMSVQAFLEEANLMKTLQHDKLVRLYAVVTREEPIYIITEYMAKGSLLDFLKSDEGGKVLLPKLIDFSAQIAEGMAYIERKNYIHRDLRAANVLVSESLMCKIADFGLARVIEDNEYTAREGAKFPIKWTAPEAINFGCFTIKSDVWSFGILLYEIVTYGKIPYPGRTNADVMTALSQGYRMPRVENCPDELYDIMKMCWKEKAEERPTFDYLQSVLDDFYTATEGQYQQQP
Take B3: the Signal to Noise Ratio with BRB1 Peptide (TR-FRET kinase assay; kinase 1 nM) was determined as 33.1.

B4: TEC (protein)
chain: MNFNTILEEILIKRSQQKKKTSPLNYKERLFVLTKSMLTYYEGRAEKKYRKGFIDVSKIKCVEIVKNDDGVIPCQNKYPFQVVHDANTLYIFAPSPQSRDLWVKKLKEEIKNNNNIMIKYHPKFWTDGSYQCCRQTEKLAPGCEKYNLFESSIRKALPPAPETKKRRPPPPIPLEEEDNSEEIVVAMYDFQAAEGHDLRLERGQEYLILEKNDVHWWRARDKYGNEGYIPSNYVTGKKSNNLDQYEWYCRNMNRSKAEQLLRSEDKEGGFMVRDSSQPGLYTVSLYTKFGGEGSSGFRHYHIKETTTSPKKYYLAEKHAFGSIPEIIEYHKHNAAGLVTRLRYPVSVKGKNAPTTAGFSYEKWEINPSELTFMRELGSGLFGVVRLGKWRAQYKVAIKAIREGAMCEEDFIEEAKVMMKLTHPKLVQLYGVCTQQKPIYIVTEFMERGCLLNFLRQRQGHFSRDVLLSMCQDVCEGMEYLERNSFIHRDLAARNCLVSEAGVVKVSDFGMARYVLDDQYTSSSGAKFPVKWCPPEVFNYSRFSSKSDVWSFGVLMWEVFTEGRMPFEKYTNYEVVTMVTRGHRLYQPKLASNYVYEVMLRCWQEKPEGRPSFEDLLRTIDELVECEETFGR
As for B4, the Signal to Noise ratio with BRB1 Peptide (TR-FRET kinase assay; kinase 0.5 nM) is 18.6.

B5: FER (protein)
chain: KSGVVLLNPIPKDKKWILSHEDVILGELLGKGNFGEVYKGTLKDKTSVAVKTCKEDLPQELKIKFLQEAKILKQYDHPNIVKLIGVCTQRQPVYIIMELVSGGDFLTFLRRKKDELKLKQLVKFSLDAAAGMLYLESKNCIHRDLAARNCLVGENNVLKISDFGMSRQEDGGVYSSSGLKQIPIKWTAPEALNYGRYSSESDVWSFGILLWETFSLGVCPYPGMTNQQAREQVERGYRMSAPQHCPEDISKIMMKCWDYKPENRPKFSELQKELTIIKRKLT
For B5, the Signal to Noise ratio with BRB1 Peptide (TR-FRET kinase assay; kinase 0.25 nM) came to 31.

B6: CTK (protein)
chain: MAGRGSLVSWRAFHGCDSAEELPRVSPRFLRAWHPPPVSARMPTRRWAPGTQCITKCEHTRPKPGELAFRKGDVVTILEACENKSWYRVKHHTSGQEGLLAAGALREREALSADPKLSLMPWFHGKISGQEAVQQLQPPEDGLFLVRESARHPGDYVLCVSFGRDVIHYRVLHRDGHLTIDEAVFFCNLMDMVEHYSKDKGAICTKLVRPKRKHGTKSAEEELARAGWLLNLQHLTLGAQIGEGEFGAVLQGEYLGQKVAVKNIKCDVTAQAFLDETAVMTKMQHENLVRLLGVILHQGLYIVMEHVSKGNLVNFLRTRGRALVNTAQLLQFSLHVAEGMEYLESKKLVHRDLAARNILVSEDLVAKVSDFGLAKAERKGLDSSRLPVKWTAPEALKHGKFTSKSDVWSFGVLLWEVFSYGRAPYPKMSLKEVSEAVEKGYRMEPPEGCPGPVHVLMSSCWEAEPARRPPFRKLAEKLARELRSAGAPASVSGQDADGSTSPRSQEP
As to B6, the Signal to Noise Ratio with BRB1 Peptide (TR-FRET kinase assay; kinase 20 nM) stood at 2.5.

B7: JAK2 (protein)
chain: RIGALGFSGAFEDRDPTQFEERHLKFLQQLGKGNFGSVEMCRYDPLQDNTGEVVAVKKLQHSTEEHLRDFEREIEILKSLQHDNIVKYKGVCYSAGRRNLKLIMEYLPYGSLRDYLQKHKERIDHIKLLQYTSQICKGMEYLGTKRYIHRDLATRNILVENENRVKIGDFGLTKVLPQDKEYYKVKEPGESPIFWYAPESLTESKFSVASDVWSFGVVLYELFTYIEKSKSPPAEFMRMIGNDKQGQMIVFHLIELLKNNGRLPRPDGCPDEIYMIMTECWNNNVNQRPSFRDLALRVDQIRDNMAG
For B7, the Signal to Noise Ratio with BRB1 Peptide (TR-FRET kinase assay; kinase 1 nM) worked out at 35.5.

B8: FAK (protein)
chain: LANSEKQGMRTHAVSVSETDDYAEIIDEEDTYTMPSTRDYEIQRERIELGRCIGEGQFGDVHQGIYMSPENPALAVAIKTCKNCTSDSVREKFLQEALTMRQFDHPHIVKLIGVITENPVWIIMELCTLGELRSFLQVRKYSLDLASLILYAYQLSTALAYLESKRFVHRDIAARNVLVSSNDCVKLGDFGLSRYMEDSTYYKASKGKLPIKWMAPESINFRRFTSASDVWMFGVCMWEILMHGVKPFQGVKNNDVIGRIENGERLPMPPNCPPTLYSLMTKCWAYDPSRRPRFTELKAQLSTILEEEKAQQEERMRMESRRQATVSWDSGGSDEAPPKPSRPGYPSPRSSEGFYPSPQHMVQTNHYQVSGYPGSHGITAMAGSIYPGQASLLDQTDSWNHRPQEIAMWQPNVEDSTVLDLRGIGQVLPTHLMEERLIRQQQEMEEDQRWLEKEERFLKPDVRLSRGSIDREDGSLQGPIGNQHIYQPVGKPDPAAPPKKPPRPGAPGHLGSLASLSSPADSYNEGVKLQPQEISPPPTANLDRSNDKVYENVTGLVKAVIEMSSKIQPAPPEEYVPMVKEVGLALRTLLATVDETIPLLPASTHREIEMAQKLLNSDLGELINKMKLAQQYVMTSLQQEYKKQMLTAAHALAVDAKNLLDVIDQARLKMLGQTRPH
Take B8: the Signal to Noise Ratio with BRB1 Peptide (TR-FRET kinase assay; kinase 3 nM) worked out at 1.7.

B9: SRM (protein)
chain: MEPFLRRRLAFLSFFWDKIWPAGGEPDHGTPGSLDPNTDPVPTLPAEPCSPFPQLFLALYDFTARCGGELSVRRGDRLCALEEGGGYIFARRLSGQPSAGLVPITHVAKASPETLSDQPWYFSGVSRTQAQQLLLSPPNEPGAFLIRPSESSLGGYSLSVRAQAKVCHYRVSMAADGSLYLQKGRLFPGLEELLTYYKANWKLIQNPLLQPCMPQKAPRQDVWERPHSEFALGRKLGEGYFGEVWEGLWLGSLPVAIKVIKSANMKLTDLAKEIQTLKGLRHERLIRLHAVCSGGEPVYIVTELMRKGNLQAFLGTPEGRALRLPPLLGFACQVAEGMSYLEEQRVVHRDLAARNVLVDDGLACKVADFGLARLLKDDIYSPSSSSKIPVKWTAPEAANYRVFSQKSDVWSFGVLLHEVFTYGQCPYEGMTNHETLQQIMRGYRLPRPAACPAEVYVLMLECWRSSPEERPSFATLREKLHAIHRCHP
B9: the Signal to Noise ratio with BRB1 Peptide (TR-FRET kinase assay; kinase 0.5 nM) was found to be 32.5.

B10: FRK (protein)
chain: MSNICQRLWEYLEPYLPCLSTEADKSTVIENPGALCSPQSQRHGHYFVALFDYQARTAEDLSFRAGDKLQVLDTLHEGWWFARHLEKRRDGSSQQLQGYIPSNYVAEDRSLQAEPWFFGAIGRSDAEKQLLYSENKTGSFLIRESESQKGEFSLSVLDGAVVKHYRIKRLDEGGFFLTRRRIFSTLNEFVSHYTKTSDGLCVKLGKPCLKIQVPAPFDLSYKTVDQWEIDRNSIQLLKRLGSGQFGEVWEGLWNNTTPVAVKTLKPGSMDPNDFLREAQIMKNLRHPKLIQLYAVCTLEDPIYIITELMRHGSLQEYLQNDTGSKIHLTQQVDMAAQVASGMAYLESRNYIHRDLAARNVLVGEHNIYKVADFGLARVFKVDNEDIYESRHEIKLPVKWTAPEAIRSNKFSIKSDVWSFGILLYEIITYGKMPYSGMTGAQVIQMLAQNYRLPQPSNCPQQFYNIMLECWNAEPKERPTFETLRWKLEDYFETDSSYSDANNFIR
Take B10: the Signal to Noise ratio with BRB1 Peptide (TR-FRET kinase assay; kinase 0.5 nM) was found to be 9.7.

B11: FES (protein)
chain: MGFSSELCSPQGHGVLQQMQEAELRLLEGMRKWMAQRVKSDREYAGLLHHMSLQDSGGQSRAISPDSPISQSWAEITSQTEGLSRLLRQHAEDLNSGPLSKLSLLIRERQQLRKTYSEQWQQLQQELTKTHSQDIEKLKSQYRALARDSAQAKRKYQEASKDKDRDKAKDKYVRSLWKLFAHHNRYVLGVRAAQLHHQHHHQLLLPGLLRSLQDLHEEMACILKEILQEYLEISSLVQDEVVAIHREMAAAAARIQPEAEYQGFLRQYGSAPDVPPCVTFDESLLEEGEPLEPGELQLNELTVESVQHTLTSVTDELAVATEMVFRRQEMVTQLQQELRNEEENTHPRERVQLLGKRQVLQEALQGLQVALCSQAKLQAQQELLQTKLEHLGPGEPPPVLLLQDDRHSTSSSEQEREGGRTPTLEILKSHISGIFRPKFSLPPPLQLIPEVQKPLHEQLWYHGAIPRAEVAELLVHSGDFLVRESQGKQEYVLSVLWDGLPRHFIIQSLDNLYRLEGEGFPSIPLLIDHLLSTQQPLTKKSGVVLHRAVPKDKWVLNHEDLVLGEQIGRGNFGEVFSGRLRADNTLVAVKSCRETLPPDLKAKFLQEARILKQYSHPNIVRLIGVCTQKQPIYIVMELVQGGDFLTFLRTEGARLRVKTLLQMVGDAAAGMEYLESKCCIHRDLAARNCLVTEKNVLKISDFGMSREEADGVYAASGGLRQVPVKWTAPEALNYGRYSSESDVWSFGILLWETFSLGASPYPNLSNQQTREFVEKGGRLPCPELCPDAVFRLMEQCWAYEPGQRPSFSTIYQELQSIRKRHR
Turning to B11, the Signal to Noise Ratio with BRB1 Peptide (TR-FRET kinase assay; kinase 1 nM) was 24.9.
